In patent US20110014656A1 (ZymoGenetics, published 2011):
Values joined by “and” are separate entries in the source; they are usually repeats but may differ in a detail not shown here. Equal entries are not always repeated.

How the values were obtained:
murine IL-17RA-Ig = target: T1, murine IL-17RA-Ig (mouse, UniProt Q60943 32-322); assay: Biacore, soluble receptor captured on chip, cytokine as analyte
T1 construct: also called mL-17RA-Ig; mIL-17RA-Fc; not shown: Ig/Fc part
T1 sequence (looked up): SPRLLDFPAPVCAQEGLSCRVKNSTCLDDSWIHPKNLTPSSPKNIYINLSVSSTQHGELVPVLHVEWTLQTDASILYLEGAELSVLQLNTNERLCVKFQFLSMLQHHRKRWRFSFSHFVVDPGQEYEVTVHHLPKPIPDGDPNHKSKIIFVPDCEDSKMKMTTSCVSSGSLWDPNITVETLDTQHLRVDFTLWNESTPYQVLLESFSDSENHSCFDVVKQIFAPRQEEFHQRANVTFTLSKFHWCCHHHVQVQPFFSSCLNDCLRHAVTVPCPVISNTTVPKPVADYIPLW

[1] = target: T2, human IL-17RC, x1 splice variant, on transfected cells (human, UniProt Q8NAC3 21-791); assay: FACS, biotinylated cytokine on transiently transfected 293F cells
T2 construct: Expressed on BHK, 293F or NIH3T3 cells; also called hIL-17RC; hIL-17RC (x1)
T2 sequence: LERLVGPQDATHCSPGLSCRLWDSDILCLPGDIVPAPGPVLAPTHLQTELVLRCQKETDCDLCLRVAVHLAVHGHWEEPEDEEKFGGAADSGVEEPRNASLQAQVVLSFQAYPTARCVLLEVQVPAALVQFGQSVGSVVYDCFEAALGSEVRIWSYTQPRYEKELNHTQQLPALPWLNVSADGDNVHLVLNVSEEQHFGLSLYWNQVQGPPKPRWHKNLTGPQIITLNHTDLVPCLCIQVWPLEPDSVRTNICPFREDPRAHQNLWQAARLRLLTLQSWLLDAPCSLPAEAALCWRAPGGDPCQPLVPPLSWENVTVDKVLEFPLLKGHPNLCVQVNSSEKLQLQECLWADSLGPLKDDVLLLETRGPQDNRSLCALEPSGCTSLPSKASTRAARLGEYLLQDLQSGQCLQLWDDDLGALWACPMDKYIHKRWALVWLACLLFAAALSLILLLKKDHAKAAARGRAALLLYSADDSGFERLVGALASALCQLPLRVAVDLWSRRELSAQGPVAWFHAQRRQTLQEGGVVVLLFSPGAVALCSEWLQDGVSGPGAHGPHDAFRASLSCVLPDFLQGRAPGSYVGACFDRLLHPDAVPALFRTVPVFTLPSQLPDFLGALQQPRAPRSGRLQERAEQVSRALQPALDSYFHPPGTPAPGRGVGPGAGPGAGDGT
Source text: (§1) However, the other splice variants tested either included or excluded hIL-17RC exon 12. These variants were designated hIL-17RCx1 (identical in exon composition to mouse x1 above), hIL-17RCx4 (identical in exon composition to mouse x4 above), hIL-17RCx2, and hIL-17RCx7.

[2] = target: T3, human IL-17RC, x4 splice variant, on transfected cells (human, UniProt Q8NAC3 21-791); assay: as above
T3 construct: Expressed on 293F, BHK or NIH3T3 cells; also called hIL-17RCx4; hIL-17RCX4
T3 sequence: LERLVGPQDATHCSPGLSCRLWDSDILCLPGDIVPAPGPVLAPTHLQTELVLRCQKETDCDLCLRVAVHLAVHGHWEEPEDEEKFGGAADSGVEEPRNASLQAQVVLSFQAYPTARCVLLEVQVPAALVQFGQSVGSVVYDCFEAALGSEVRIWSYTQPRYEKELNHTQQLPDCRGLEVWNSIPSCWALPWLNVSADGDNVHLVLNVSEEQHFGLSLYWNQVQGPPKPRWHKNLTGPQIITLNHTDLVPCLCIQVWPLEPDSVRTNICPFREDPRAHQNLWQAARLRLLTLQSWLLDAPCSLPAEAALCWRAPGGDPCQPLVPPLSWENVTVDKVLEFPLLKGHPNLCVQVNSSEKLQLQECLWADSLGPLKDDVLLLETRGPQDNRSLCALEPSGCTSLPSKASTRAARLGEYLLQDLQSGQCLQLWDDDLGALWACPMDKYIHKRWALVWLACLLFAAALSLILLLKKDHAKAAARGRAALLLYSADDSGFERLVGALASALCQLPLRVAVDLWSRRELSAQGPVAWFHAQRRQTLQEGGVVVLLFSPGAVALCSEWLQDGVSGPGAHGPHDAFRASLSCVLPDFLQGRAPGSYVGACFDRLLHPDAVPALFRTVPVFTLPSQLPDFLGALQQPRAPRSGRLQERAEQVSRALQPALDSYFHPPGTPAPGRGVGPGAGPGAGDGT
Source text: as §1

[3] = target: T2, human IL-17RC, x1 splice variant, on …; assay: cell-based or functional assay
human IL-17F [4] = target: T4, human IL-17F (human, UniProt Q96PD4 31-163); assay: Biacore, receptor captured by anti-human IgG Fc on CM5 chip, ligand as analyte
T4 construct: also called hIL-17F; hIL17F
T4 sequence: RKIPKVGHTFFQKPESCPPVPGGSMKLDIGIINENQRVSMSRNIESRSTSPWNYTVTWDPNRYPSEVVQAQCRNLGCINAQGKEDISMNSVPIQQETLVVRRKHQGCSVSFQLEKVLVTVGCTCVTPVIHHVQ
Source text: (§2) The protocol was optimized to capture receptor at a theoretical binding max. before injecting a concentration series of each ligand to observe association and dissociation. […] The surface was regenerated with 2×30 sec. injections of pH 1.75 glycine between cycles.

human IL-17A [5] = target: T5, human IL-17A (human, UniProt Q16552 24-155); assay: as above
T5 construct: also called hIL-17A; hIL17A
T5 sequence: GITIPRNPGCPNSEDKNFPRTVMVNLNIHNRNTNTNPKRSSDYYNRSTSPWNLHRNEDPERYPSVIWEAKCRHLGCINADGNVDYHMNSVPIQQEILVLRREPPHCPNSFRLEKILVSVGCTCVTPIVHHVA
Source text: as §2

[6] = target: T6, IL17A-CH6/IL17F-CEE 2 chain heterodimer (human, UniProt Q16552 24-155; Q96PD4 31-163); assay: Biacore T100, receptor captured by anti-human IgG Fc-gamma on CM4 chip; KD1 of the bivalent analyte model
T6 construct: The entries may include a signal peptide; also called IL-17A/F heterodimer; zcyto40f2v.1-2chain
T6 sequence 1: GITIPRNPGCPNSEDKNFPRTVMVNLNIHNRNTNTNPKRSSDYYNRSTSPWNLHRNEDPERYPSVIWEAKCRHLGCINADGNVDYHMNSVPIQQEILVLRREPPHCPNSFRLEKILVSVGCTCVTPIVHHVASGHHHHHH
T6 sequence 2: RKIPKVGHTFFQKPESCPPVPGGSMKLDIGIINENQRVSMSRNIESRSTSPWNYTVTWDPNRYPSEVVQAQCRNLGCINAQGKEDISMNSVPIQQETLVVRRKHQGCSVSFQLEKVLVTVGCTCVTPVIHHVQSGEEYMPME
Protocol: (§3) The binding kinetics and affinity study was performed on a Biacore T100™ system (GE Healthcare, Piscataway, N.J.). Methods for the Biacore T100™ were programmed using Biacore T100™ Control Software, v 1.1.1. […] The capture antibody was covalently immobilized to a CM4 sensor chip using a mixture of 0.4 M EDC [N-ethyl-N′-(3-[…])carbodiimide] and 0.1 M NHS (N-hydroxysuccinimide) to a density of approximately 4000 RU. […] Capture of the receptor to the immobilized surface was performed at a flow rate of 10 μL/min. The Biacore instrument measures the mass of protein bound to the sensor chip surface, and thus, capture of the soluble receptor was verified for each analysis cycle.
(§4) Between analysis cycles, the flow cell was washed with 20 mM hydrochloric acid to regenerate the surface. […] Data was compiled using the Biacore T100™ Evaluation software (version 1.1.1). Data was processed by subtracting reference flow cell and blank injections. Baseline stability was assessed to ensure that the regeneration step provided a consistent binding surface throughout the sequence of injections. Duplicate injection curves were checked for reproducibility. […] If only one portion of the heterodimer binds to the receptor, a simple 1:1 binding model would be appropriate and the curves should fit well to this model. […]

human IL-17F [7] = target: T4, human IL-17F; assay: cell-based or functional assay
human IL-17A [8] = target: T5, human IL-17A; assay: cell-based or functional assay
[9] = target: T6, IL17A-CH6/IL17F-CEE 2 chain heterodimer; assay: cell-based or functional assay
[10] = target: single chain human IL17A:IL17F heterodimer (human); assay: cell-based or functional assay
human IL-17F [11] = target: T4, human IL-17F; assay: cell-based or functional assay; remark: listed apart in the source
human IL-17A [12] = target: T5, human IL-17A; assay: cell-based or functional assay; remark: listed apart in the source
human IL-17F [13] = target: T4, human IL-17F; assay: Biacore, summary of Table 11
Source text: as §2

human IL-17A [14] = target: T5, human IL-17A; assay: Biacore, summary of Table 11
Source text: as §2

[15] = target: T6, IL17A-CH6/IL17F-CEE 2 chain heterodimer; assay: Biacore T100, receptor captured by anti-human IgG Fc-gamma on CM4 chip; ka1 of the bivalent analyte model
Protocol: as §3, §4

[16] = target: T6, IL17A-CH6/IL17F-CEE 2 chain heterodimer; assay: Biacore T100, receptor captured by anti-human IgG Fc-gamma on CM4 chip; KA1 of the bivalent analyte model
Protocol: as §3, §4

[17] = target: T6, IL17A-CH6/IL17F-CEE 2 chain heterodimer; assay: Biacore T100, receptor captured by anti-human IgG Fc-gamma on CM4 chip; kd1 of the bivalent analyte model
Protocol: as §3, §4

B1: murine IL-17A (ligand)
chain: AAIIPQSSACPNTEAKDFLQNVKVNLKVFNSLGAKVSSRRPSDYLNRSTSPWTLHRNEDPDRYPSVIWEAQCRHQRCVNAEGKLDHHMNSVLIQQEILVLKREPESCPFTFRVEKMLVGVGCTCVASIVRQAA
notes: also called mIL-17A; mIL17A
With B1 the Kd (murine IL-17RA-Ig) was 0.069 nM and 0.072 nM, the binding result [1] was “no binding” and the binding result [2] was “no binding”. For the same binder, the “EC50, luciferase in nih3t3/kz142.8/hcytor14x1 cells” value [3] was roughly 4 ng/mL.

B2: Variant 1454, soluble IL-17RC/IL-17RA polypeptide fused to Fc5 (Fc fusion)
chain: LRLLDHRALVCSQPGLNCTVKNSTCLDDSWIHPRNLTPSSPKDLQIQLHFAHTQQGDLFPVAHIEWTLQTDASILYLEGAELSVLQLNTNERLCVRFEFLSKLRHHHRRWRFTFSHFVVDPDQEYEVTVHHLPKPIPDGDPNHQSKNFLVPDCEHARMKVTTPCMSSALPWLNVSADGDNVHLVLNVSEEQHFGLSLYWNQVQGPPKPRWHKNLTGPQIITLNHTDLVPCLCIQVWPLEPDSVRTNICPFREDPRAHQNLWQAARLRLLTLQSWLLDAPCSLPAEAALCWRAPGGDPCQPLVPPLSWENVTVDKVLEFPLLKGHPNLCVQVNSSEKLQLQECLWADSLGPLKDDVLLLETRGPQDNRSLCALEPSGCTSLPSKASTRAARLGEYLLQDLQSGQCLQLWDDDLGALWACPMDKYIHKEPKSSDKTHTCPPCPAPEAEGAPSVFLFPPKPKDTLMISRTPEVTCVVVDVSHEDPEVKFNWYVDGVEVHNAKTKPREEQYNSTYRVVSVLTVLHQDWLNGKEYKCKVSNKALPSSIEKTISKAKGQPREPQVYTLPPSRDELTKNQVSLTCLVKGFYPSDIAVEWESNGQPENNYKTTPPVLDSDGSFFLYSKLTVDKSRWQQGNVFSCSVMHEALHNHYTQKSLSLSPGK
notes: also called IL-17RA/RC-Fc5; IL17RA/RC 1454
In the case of B2, the Kd (human IL-17F [4]) is reported as 0.143 nM and 0.126 nM, the koff (human IL-17F [4]) is reported as 0.000261 s⁻¹ and 0.000315 s⁻¹ and the kon (human IL-17F [4]) is reported as 1.82e+06 M⁻¹ s⁻¹ and 2.49e+06 M⁻¹ s⁻¹. The Kd (human IL-17A [5]) was 0.0439 nM and 0.0382 nM, the koff (human IL-17A [5]) was 6.22e-05 s⁻¹ and 9.95e-05 s⁻¹ and the kon (human IL-17A [5]) was 1.42e+06 M⁻¹ s⁻¹ and 2.61e+06 M⁻¹ s⁻¹. The Kd [6] was 4 nM, the “IC50, huIL-17F(50 ng/ml) induction of G-CSF in SAEC” value (human IL-17F [7]) was 1.2 µg/mL and the “IC50, huIL-17F(50 ng/ml) induction of IL-8 in SAEC” value (human IL-17F [7]) was 0.57 µg/mL. The “IC50, huIL-17A(10 ng/ml) induction of G-CSF in SAEC” value (human IL-17A [8]) was 0.14 µg/mL, the “IC50, huIL-17A(10 ng/ml) induction of IL-8 in SAEC” value (human IL-17A [8]) was 0.03 µg/mL and the “IC50, NIH-3T3/KZ170 luciferase reporter neutralization assay” value [9] was 3.17 nM. For the same binder, the “IC50, NIH-3T3/KZ170 luciferase reporter neutralization assay” value [10] was 13.3 nM, the “IC50, NIH-3T3/KZ170 luciferase reporter neutralization assay” value (human IL-17F [11]) was 0.874 nM and the “IC50, luciferase in hIL-17RA/NIH3T3/KZ142.8 cells, 20 ng/ml IL-17F” value (human IL-17F [11]) was 0.48 µg/mL. For the same binder, the “IC50, luciferase in hIL-17RCX4/NIH3T3/KZ142.8 cells, 1 ng/ml IL-17F” value (human IL-17F [11]) was 0.8 µg/mL, the “IC50, NIH-3T3/KZ170 luciferase reporter neutralization assay” value (human IL-17A [12]) was 0.167 nM and the “IC50, luciferase in hIL-17RA/NIH3T3/KZ142.8 cells, 0.5 ng/ml IL-17A” value (human IL-17A [12]) was 1 ng/mL. It also gave a Kd (human IL-17F [13]) of roughly 0.14 nM, a Kd (human IL-17A [14]) of roughly 0.04 nM and a kon [15] of 500000 M⁻¹ s⁻¹. It also gave a Ka [16] of 2e+08 M⁻¹ and a koff [17] of 0.002 s⁻¹.
